Laboratory results published in a protein production outcome set (Wang et al. 2014).
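Note: failed if final PepcDB status was selected cloned or expressed and not failed if soluble or beyond.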

Assay: label from the status in PepcDB records
For “MDLFPVLKELAQKTPSKILLIVLDGVGGLPLEPGGPTELEAAKTPNLDRLAEESALGLLTPVYPGLAPGSGPGHLALFGYDPFRYVVGRGALSALGLGADFREGDVALRGNFATLDPEGKVVDRRAGRPPTEENQRVIAKLKEAIPRIEDVEVLFYTESEHRFLVILRGEGLEDKVTDTDPQKTGLPPLKAKALDEASERTARLVNLLSERIREVLKDEPRMNGALFRGASKKPSFPRMQEVYKLTPAAIASYPMYKGLASLVGMEVLPVEGEGDALEGKLKALKENWGRYDFFYFHVKKTDAMGEDGNFHGKVEKVELFDALLPEILALGPDVLAITGDHSTPALLKAHSWHPVPLLLKAPYLRADEARRFTEREAQRGSLGHLRGVELMPLLLAHAGKLLKYGA”, the protein production was “failed”. For “MDLHESESRTHVLSTDGDDGYIDMEVNLSSSSSSSTSSSSFFSFPVTSSPPQSREFEFQMCSSAVASGESTTSPADELFYKGQLLPLHLPPRLKMVQKLLLASSSSTAATETPISPRAAADVLSPRRFSSCEIGQDENCFFEISTELKRFIESNENHLGNSWSKKIKHSSITQKLKASRAYIKALFSKQACSDSSEINPRFKIEPSKVSRKKNPFVNSENPLLIHRRSFSGVIQRHSQAKCSTSSSSSSSASSLSSSFSFGSNGSLDLQTLMRSSNASDNSIEGAIEHCKQSFTTRKSNVTESELCSSRTSVSTCGDLDKD”, the protein production was “failed”. With “MDLIHEKVFVNRYHYDVRNHEWEKENGVPKTNVEVTFQLHHKDKEANNTSVVAVLQFMIVRDEFVISGIVSQMNHIQNRIVNNPKDFSQEEAEYLAAPLLDTLQRLTYEVTEIALDRPGINLEF” the protein production was “not failed”. In the case of “MDLKGWISKKSSNVSYEKIKYEFSNVKYSVDHGRLEILHGIKGILLPKTITVIMGPSGSGKTTLLNILSMKVTEGVEGDFLINDMSRMKNIKRHMGYVLQDDYFFSRLTVYETIEFTAKLKLDIRDKKKLNELVHSVLDIMSLTHVKDTIVGDAFIRGISGGQRKRLSIANEILSNPPLLLMDEPTSGLDSSSALSLVECIQRIAQTSNTTIISSLHQPSSQVFSKFDRLIAITNGYIIYHGKTTDLNKYLKKVGFICPYGWNVADYLMDILSNKKFEAILIDNYNKYLHFDSDVGYYMNVKAIDSKIIHDDYDSILEKTNQSISKNSQTNNKSSTNLSSINKSPILSTQENKTREHDILKFQAVELLISLQENKTPYIRQNFFLLIRGLKKIITDEITIIKVIDLVVILTLFGVLWLHTFKEETEEGIIDTIGAIFFILSYWTFYPAYLSLYSFPSEREVIAKERNMKTFQVSNYFLSKLLAEFIYFFMIIAFWILVTHLILYGTLKIGIYLSYAFITLLNALISSSLGYFISTLFDNFSKAVSFLSVVLLTMTLTNGFYVEISKLDVPFRYLQWLSYQTYSASVLAKIKFDDALIKCSPDNNSLPCKNNGFFPGEIIVQKRFATLHISISILILICFYSVIKTFTYVSLRWSQALKMK”, the protein production is reported as “failed”. For “MDLMAYWLCITNEDNWKVIKEKKIWGVAERYKNTINKVKVGDKLIIYEIQRSGKDYKPPYIRGVYEVVSEVYKDSSKIFKPTPRNPNEKFPYRVKLKEIKVFEPPINFKELIPKLKFITNKKRWSGHLMGKAMREIPEEDYKLIVGN”, the protein production was “not failed”. With “MDLNNNKSNNIVKTLARWCLLLQAFMISSNTVALKEPDYVNMNITIRNSMTGLIRPEIVYRCQSKRKDYGWHRSPKPGVQFSFPIILIKGETKIPAIHICQIRSVLGTATLVIQNTYLDAEMCPRSSCAHEATPKGIVFRGLEWDFKTVFPKLKPVEYLELPWTPWPNRT” the protein production was “failed”. With “MDLRVLLSGLAYSTIFGLSFLFTKNALDYVTPLTFLSFRFIVAFLSYLLLLITGAVKLGKKPYWKLWKLVLFQPVLYFLFETYGLQRVNSSEAGMIIALIPIVVNLLAPFILKEKGDLLHYLLVGMGFLGVSLIVGFNITPGNIVGKVFMLLAVLSGAMYSVFSRKFSKEFTPTEITFFMMMTGAVFFTLLSLSTGDFRPVFNVDVVIGALYLGVLSSTVAFFLLNYAIRKLSPIFTTLFSNFTTVVSVIAGVVFRNETVGIQQIAGMGLIISSLIIMSLRRSYKRLSRAQKL” the protein production was “failed”. With “MDLSSKPQQQLLNSLPIAGELTVTGEMGVCYKECLKNHAANLGGHALDGCGEFMPSPTATSTDPSSLRCAACGCHRNFHRRDPSENLNFLTAPPISSPSGTESPPSRHVSSPVPCSYYTSAPPHHVILSLSSGFPGPSDQDPTVVRSENSSRGAMRKRTRTKFTPEQKIKMRAFAEKAGWKINGCDEKSVREFCNEVGIERGVLKVWMHNNKYSLLNGKIREIEHGLCLNTHSNDGDGSSSS” the protein production was “not failed”. For “MDLTIQHFIALAPLLITSLTVVVVMLAIAWRRNHSQTFLLSVAGLNLALLSIYPALKVAPLVVTPLLHIDNFACLYMAIILASTLACVTMAHAYLGDGKVGYPGNREELYLLILLAAAGGLVLVSAQHLAGLFIGLELLSVPVYGLVAYAFFNKRSLEGGIKYMVLSAAGSAFLLFGMALLYAEAGSLSFEGIGKAIAATGMPSPIATVGLGMMVVGLAFKLSLVPFHLWTPDVYEGAPAPVAAFLATASKVAVFAVLVRLFQISPAASSGVLHDVMAVIAVASILVGNLLALTQTNLKRLLGYSSIAHFGYLMIALVASKGMAVEAIGVYLATYVLTSLGSFGVITMMSSPYSGRDADAMFEYRGLFWRRPYLTAVMTLMMLSLAGIPLTAGFIGKFYIIATGVESQLWWLIGALVIGSAIGVFYYLRVMVTMYLVDNKLPRHDAAINWAQRTGGVMLLAVAILTFVLGVYPQPLLDLVVNAGLHAAG”, the protein production was “not failed”. For “MDLVVITETTIPTKITHVNKKSSDELLRKFADPDDVDESSKSTKRRKKSAKSSSREKGVDIESNTSGLVERKRLLLAPASKRRSLFIRQLASGKSHLRNKSLVRTIGKTWRKTMEGASRVFIEKHYNRHRRLTNDVV”, the protein production was “failed”. For “MDMEQRERWATKIGLILAMAGNAIGLGNFVRFPTQVAGNGGGAFMVPYFLALFLLGIPVMWVEWVQGRYGGKYGHGTLGPTFYLMARESLKPRSALWFGLIGGALAFATTTLLNSYYLHLIGWSAAYSWFSITGAYYGKNTAQFFSQYLSNHGLVFLFWGITVVLLGIAVGQGVSKGIERWVKVMMPLLYVFAIILVIYVFALGSPLGQPQWSTIKGFEFIWSPNWGYLKDHLWKVMLAASGQIFFTLSLGMGIIQNYASYLGPKDDVALSGLATVSLNEFAEVVLGGSIAVPLAVAYAPKIVPPDVLAKGSDAALAWISENFGLGFSYTSLPNIFVQMGTAGRFFGALWFLLLWFAGFTSAIAMYNYLTALLEEDLGIKRSVGTWVVFIIYFLLGIPVVYINGYLDQVDAWISFQLALLALFDIIVSVWLFKPDNFWRELHEGALINVPEFYKWITVIIAPIFIALPLFGTFTDLVSKTLGWPAKIAILTMLTIGAIEAYYAIKKKYGEELEKNEVIIKV”, the protein production was “failed”. In the case of “MDNASEQRNYTTFWVGLASLTLEVVFIMAKSRVKKRPDGRYAMQIYLGTVDGKRKYKTVYGGTPKEVQKKADEVRILMGKGIDISAQRDTFKEWGNHWLKIKKAIVSSAHYKTCEQKLRIINCYIGDMPISQIKTANVQNIIFDLSSLNRWTGKPTAKRTLVEYRSVCRQVFQLAIENRIIDYNPASSVKIVSNQLKKERRALSVEEQGWIINTPHRAQKAAMIMMFAGLRRGEVIPLTWNDIDFEAGTIRVNKSVFKEGTRFNIKSGAKTESGNRVVNIPQILIDFLKLQPKDTILVCPDTKDVMMTETSWRRMWDSYIKDLNIKYGDLNGKRSKYDPKGVPITIPRITPHWLRHTFCTLLYLSGTDVLTAKEQMGHSDIKTTLGIYTHLDKEHKRNAVSKLNEYIETHASHMQVKNS”, the protein production is reported as “failed”. In the case of “MDNLSFHDGNIFNLLHTRSQDPSHEVDQRMQFHSSLVRRLSQEQELEGHQGCVNALAWNSNGSLLISGSDDLRINIWNYSSRKLLHSIDTGHTANIFCTKFVPETSDELVVSGAGDAEVRLFNTSRLSGRAEDDNAIIPSALYQCHTRRVKKLAVEPGNPNVVWSASEDGTLRQHDFRESTSCPPAGTAHQECRSVLLDLRSGAKRALADPPKQTLSLKSCDISATRPHLLLVGGSDAFARLYDRRMLPPLASSRKRMPPPPCVNYFCPMHLSERGRTNLHLTHVTFSPNGEEVLLSYSGEHVYLMNVNNGICSTGIMQYTPGDVDNLFSFSNNLHDVESPPQVSTTPQNGFHRSSNAATVKKCTELVEIAKWSLEEGTDVFYAIEAANEVLDAHSNDIESALRHECLCTRAALLLKRKWKNDAHMAVRDCHNARRIDASSFKAHYYMSEALQQLGKCKEALDFATAAQHMNPSDADIVAKVESIKRDLQAAGAEKNEETGAGTTRVLSLSDILYRSEANSDSSHDMSRSEREDSDYDEELELDIQTSLSDDEGRDTDSNSMRGSLNLRIHRVGDDKPMENTVDNASSGTASSSQNDRTSYQPEGAIDMKRRYVGHCNVGTDIKQASFLGQRGEYIASGSDDGRWFIWEKQTGRLMKVLVGDESVLNCIQCHPFDSVVATSGIDNTIKIWSPTASVPSIVAGGSAGPATANVVEVMESNQQKLSRNRENPLSVELMQRFRMQEFAEGNFHPFECTQS”, the protein production is reported as “failed”. With “MDNRTGEMEVFVSAAELQSFSAAGRRLKLSPSAVSKLVTRIEDRLGTRLLVRSTRMMTLTPEGEIYLARARRILADIADTEQIVAAGGKLVPRGLLRVNASVGFGERFLLPLIPAFLELYPEVQLDISLTDGIIGLIEERTDIAIRSGAMDDSSLKARKLLESRRVIIASPSYIKRHGMPQTPADLAAHNCFSFNFRRSLNEWPFRDPGSTEIYRLPVSGNSSVNSGMIMRRLCLAGSGLGRVGQFHVQPDIDAGTLVPVLEDYNPDDIEEIHAVFAGHEHLATRIRAFIDFLAEHVGKDRA” the protein production was “failed”. In the case of “MDNSGIYVGLDIGTTSIKVIVAERVKGQMNVIGVGSARSNGLSRGVIVDIDKAAETIRSAVRQAEEKASIEIKKVIAGVPANLVKIERCRGMIAVADESKEINNEDVQNVAAAALVQSLPPEREVLDVIPDEFVVDGFDGIKDPRGMVGVRLEMHGTLFTGPKTIIHNTRKALEKAGLQIEQIVIAPLALSSLVLNDGEQDFGSIIIDMGGGQTTAAVIHDHQLKYTYVDQEGGQYITKDISVVLNTSIENAEKLKRDYGYADAQQASDDELFPVDVVGQSTPEQISEQYLAEIIEARLDQIFDKVKQHLDEIRALELPGGIVLTGGVAALPGITDLAAQRFGTRVRVFTPNQMGLRHPSFDEALAVIKYQAALSEVTLLVKSALTGDTRASVALEFADTTPAPSQPAAQPKKATKKQSAPQAPQEQADPDHKGTVERVKGFFNHFFD”, the protein production is reported as “failed”. For “MDNSLLSEIWRQSLAFPWLSAVILNSFLLALAAIAPKKLLTPWGYGHAWVLGVIIWAALGWRGYLVVLAYFFVGSAVTRIGQKEKEAAGIAEKRSGQRGPENVWGSALTAALCALAIAFGPEPWQLWLALGYVASFSTKLSDTTASEVGKAYGKNTFLITTLQPVPRGTEGAVSVEGTLAGFAAGLALAVLGYGVGLISFGGIIFSTLAAFIATNLESVIGATLQNKWPWLTNEVVNGINTFLGAAIAIGIEATAQLI”, the protein production was “failed”. In the case of “MDNVGCDKRISWPCHCSKSRTAPRRGSHLMARGRKRRFNPNIPGHIEQEALPKGIYWENGRWYMHEDHPDGGRQVKRTVAFRSARLSELHAIAESRLRGDVRGTLRYLFDRFHEASEFKELQHDTQKDYRRYADTLANYVRKDGSKLGGVQLEHITTPVVQRLLETFANGRPATRLQQALPPTPSKANHLYRYLRRTLAWGVRHGYCKENPAIGVLQAKEAKAFRMPTPDAFEAVLQFARERGALKPHTKGSFPSYLPPVMVLAYSARLRGIEVCSLTDAHRLEHGVHASRRKGSRDTLTTWDAHMTEAWEALLARRSEICNKPGRNFPIPMKPEERFFLIEQTGNPIVKSSLDSAWQRFIPAAIRDGVIKSEERFSLHGLKHRGVTDTEGNRGDKQDAAGHVSSSMTDRYDHELPVVKPPRRR”, the protein production is reported as “failed”. For “MDPCTGGNGCVHICQSENGTARCACHAGYQLPEDKNICEDINECAEGLSYCGHCCVNSMGSFTCACQTGFELGADRKQCYSNWQQSQPRLYLSLSDFFLLFPVHDYTLPGIELEIVNSCEKNNSVCSHHREHEIGAPRCSCNHGHQLDSDEKTCIDLDECENGEACCAQLCINYLGGYKCRCQEGFQITSNGCECDALDDDELEEEEEE”, the protein production was “failed”. In the case of “MDPKKADIIRLEALPQDLLGGIVAKVGATTAEDFHNCILVCKELGASANDKHVFKTLNLALLVKKPLSGTQTPSYYENMS”, the protein production is reported as “not failed”.
